The values below are quoted from earlier work in article PMC9594322.

In general, Kd refers to the concentration at which binding is half-saturated.

This data set addresses HIF-1β PAS-B (Homo sapiens) (UniProt P27540).

Chain of HIF-1β PAS-B (Homo sapiens) (P27540 356-470): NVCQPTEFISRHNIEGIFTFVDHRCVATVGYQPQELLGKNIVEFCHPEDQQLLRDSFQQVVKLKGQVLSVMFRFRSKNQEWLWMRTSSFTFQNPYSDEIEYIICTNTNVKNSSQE
Chain of HIF-1α PAS-B (Q16665 238-349): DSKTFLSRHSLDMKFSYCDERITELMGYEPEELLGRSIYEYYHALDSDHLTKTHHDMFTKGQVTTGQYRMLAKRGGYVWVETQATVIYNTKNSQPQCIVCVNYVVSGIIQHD

In the case of HIF-1α PAS-B (from UniProt Q16665), the Kd is 0.378 µM.
